Laboratory results reported in US20140087995A1 (published 2014).
Numbered stars: 1 amine (or outer) side, 2 acyl side, 3 side chain; on linkers, the order of the positions; unused ones are H or OH. Bridge positions count the residues as written; N and C are the ends. Side chains are listed from the residue outwards. Ends that are not written are not given here. * marks the point of attachment. C20 diacid = O=C(O)CCCCCCCCCCCCCCCCCCC(=O)*; γGlu = O=C(O)[C@H](CCC(=O)[*:2])N[*:1]; AEEA = NCCOCCOCC(=O)O

How the values were obtained:
[1] = molecular target: T1, rat calcitonin receptor (rat, UniProt P32214 25-516); experiment: ratio of binding IC50s: rat calcitonin receptor over rat amylin receptor (reference)
T1 construct: whole, on cells; also called rCTR; rat calcitonin (a) receptor
T1 sequence (looked up): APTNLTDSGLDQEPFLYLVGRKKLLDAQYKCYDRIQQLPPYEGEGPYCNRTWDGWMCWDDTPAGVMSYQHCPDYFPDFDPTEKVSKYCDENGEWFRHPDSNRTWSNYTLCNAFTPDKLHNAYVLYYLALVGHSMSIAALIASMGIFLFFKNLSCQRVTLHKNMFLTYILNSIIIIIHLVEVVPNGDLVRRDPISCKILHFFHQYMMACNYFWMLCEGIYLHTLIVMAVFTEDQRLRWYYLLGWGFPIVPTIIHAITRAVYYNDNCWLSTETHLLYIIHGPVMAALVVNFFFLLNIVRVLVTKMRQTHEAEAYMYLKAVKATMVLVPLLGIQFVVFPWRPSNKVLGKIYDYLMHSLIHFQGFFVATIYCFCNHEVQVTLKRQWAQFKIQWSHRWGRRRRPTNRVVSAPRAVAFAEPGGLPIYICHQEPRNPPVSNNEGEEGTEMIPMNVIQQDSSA

[2] = molecular target: T2, human calcitonin receptor (human, UniProt P30988 25-474); experiment: ratio of binding IC50s: human calcitonin receptor over human amylin receptor (reference)
T2 construct: whole, on cells; also called hCTR; hCT
T2 sequence (looked up): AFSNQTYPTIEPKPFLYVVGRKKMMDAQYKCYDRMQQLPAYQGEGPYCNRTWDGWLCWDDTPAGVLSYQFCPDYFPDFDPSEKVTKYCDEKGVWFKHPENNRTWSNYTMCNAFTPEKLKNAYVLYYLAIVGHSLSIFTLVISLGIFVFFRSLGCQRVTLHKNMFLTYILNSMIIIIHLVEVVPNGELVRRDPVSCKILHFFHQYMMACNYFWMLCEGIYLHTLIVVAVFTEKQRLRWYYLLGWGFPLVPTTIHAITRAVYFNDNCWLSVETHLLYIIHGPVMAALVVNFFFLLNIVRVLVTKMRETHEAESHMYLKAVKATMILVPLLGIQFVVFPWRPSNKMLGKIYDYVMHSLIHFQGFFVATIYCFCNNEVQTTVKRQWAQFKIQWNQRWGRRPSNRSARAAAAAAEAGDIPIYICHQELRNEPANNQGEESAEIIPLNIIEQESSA
Experimental: The resulting pellet was resuspended, homogenized and centrifuged (20.000 rpm, 15 min) in a buffer containing 20 mM Na-HEPES and 0.1 mM EDTA (pH 7.4, buffer 2). The resulting pellet was resuspended in buffer 2 and protein concentration was measured (BCA protein Assay, Pierce). The homogenate was kept cold during the whole procedure. The membranes were kept at −80° C. until use. The assay was performed in a 384 well Optiplate (PerkinElmer) in a total volume of 40 ul. Membranes were mixed with SPA beads. Final concentration of membranes 35 ng/μL final and SPA beads was 0.05 mg/well. Test-compounds were dissolved in DMSO and further diluted in assay buffer (50 mM Hepes, pH 7.4, 1 mM CaCl2, 5 mM MgCl₂, 0.1% OA and 0.02% Tween20). […] The final mixture was incubated with shaking at 400 rpm for 120 min at 25° C. prior to centrifugation (1500 rpm, 10 min). Samples were analyzed on TopCounter™ (Packard). The IC₅₀ was calculated using (one site binding competition analysis) GraphPad Prism5 as a measure of receptor affinity.
Membranes were prepared in the following way; the cells were rinsed with PBS and incubated with Versene for approximately 5 min before harvesting. The cells were flushed with PBS and the cell-suspension was centrifuged for 5 min at 1000 rpm. Cells were homogenized (Ultrathurrax) in a buffer containing 20 mM Na-HEPES and 10 mM EDTA (pH 7.4) and centrifuged at 20.000 rpm for 15 min. The resulting pellet was resuspended, homogenized and centrifuged (20.000 rpm, 15 min) in a buffer containing 20 mM Na-HEPES and 0.1 mM EDTA (pH 7.4, buffer 2). The resulting pellet was resuspended in buffer 2 and protein concentration was measured (BCA protein Assay, Pierce). The homogenate was kept cold during the whole procedure. The membranes were kept at −80° C. until use. Assay was performed in a 384 well Optiplate (PerkinElmer) in a total volume of 40 ul. Membranes were mixed with SPA beads.

[3] = molecular target: T1, rat calcitonin receptor; experiment: SPA competition with 125I-calcitonin, membranes of BHK cells with rat calcitonin receptor (Assay VIII)
[4] = molecular target: T3, rat amylin receptor (rat calcitonin receptor + rat RAMP 3) (rat, UniProt P32214 25-516; Q9JJ73 23-147); experiment: SPA competition with 125I-rat amylin, membranes of BHK cells with rat calcitonin receptor + rat RAMP3 (Assay VI)
T3 construct: whole, on cells; also called rAmylin-R; rat amylin 3(a) receptor
T3 sequence (looked up) 1: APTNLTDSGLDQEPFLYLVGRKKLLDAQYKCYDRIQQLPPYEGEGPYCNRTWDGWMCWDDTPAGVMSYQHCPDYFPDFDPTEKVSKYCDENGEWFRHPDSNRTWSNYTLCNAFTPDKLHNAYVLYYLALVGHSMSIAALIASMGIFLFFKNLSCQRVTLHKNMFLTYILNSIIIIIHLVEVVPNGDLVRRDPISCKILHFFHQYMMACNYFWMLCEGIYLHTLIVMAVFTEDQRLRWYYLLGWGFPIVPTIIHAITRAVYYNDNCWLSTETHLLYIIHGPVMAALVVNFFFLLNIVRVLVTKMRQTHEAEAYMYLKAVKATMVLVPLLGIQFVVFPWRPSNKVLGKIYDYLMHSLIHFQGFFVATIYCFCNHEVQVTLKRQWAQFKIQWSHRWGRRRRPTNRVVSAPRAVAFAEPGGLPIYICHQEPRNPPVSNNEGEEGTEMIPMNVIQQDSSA
T3 sequence (looked up) 2: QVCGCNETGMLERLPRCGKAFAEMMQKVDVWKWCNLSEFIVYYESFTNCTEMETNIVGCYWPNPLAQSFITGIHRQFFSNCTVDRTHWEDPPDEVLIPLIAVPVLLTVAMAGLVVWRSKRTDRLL

Row | Binder | Ratio rCT/rAmylin binding [1] | Ratio hCT/hAmylin binding [2] | IC50 [3] [nM] | IC50 [4] [nM]
1 | K([AEEA-γGlu-C20 diacid])CNTATCATQRLAAFLRHSSPNFGAIPSSTPVGSNTY-NH2 (disulfide 2-7; N-terminus assumed; SMILES CC[C@H](C)[C@H](NC(=O)[C@H](C)NC(=O)CNC(=O)[C@H](Cc1ccccc1)NC(=O)[C@H](CC(N)=O)NC(=O)[C@@H]1CCCN1C(=O)[C@H](CO)NC(=O)[C@H](CO)NC(=O)[C@H](Cc1c[nH]cn1)NC(=O)[C@H](CCCNC(=N)N)NC(=O)[C@H](CC(C)C)NC(=O)[C@H](Cc1ccccc1)NC(=O)[C@H](C)NC(=O)[C@H](C)NC(=O)[C@H](CC(C)C)NC(=O)[C@H](CCCNC(=N)N)NC(=O)[C@H](CCC(N)=O)NC(=O)[C@@H](NC(=O)[C@H](C)NC(=O)[C@@H]1CSSC[C@H](NC(=O)[C@@H](N)CCCCNC(=O)COCCOCCNC(=O)CC[C@H](NC(=O)CCCCCCCCCCCCCCCCCCC(=O)O)C(=O)O)C(=O)N[C@@H](CC(N)=O)C(=O)N[C@@H]([C@@H](C)O)C(=O)N[C@@H](C)C(=O)N[C@@H]([C@@H](C)O)C(=O)N1)[C@@H](C)O)C(=O)N1CCC[C@H]1C(=O)N[C@@H](CO)C(=O)N[C@@H](CO)C(=O)N[C@H](C(=O)N1CCC[C@H]1C(=O)N[C@H](C(=O)NCC(=O)N[C@@H](CO)C(=O)N[C@@H](CC(N)=O)C(=O)N[C@H](C(=O)N[C@@H](Cc1ccc(O)cc1)C(N)=O)[C@@H](C)O)C(C)C)[C@@H](C)O, synthetic analogue of human amylin; also called compound 72) | 259 | 247 | 221 | 0.851
2 | K([AEEA-γGlu-C20 diacid])CNTATCATQRLANFLRHSSPNFGAIPSSTNVGRNTY-NH2 (disulfide 2-7; N-terminus assumed; SMILES CC[C@H](C)[C@H](NC(=O)[C@H](C)NC(=O)CNC(=O)[C@H](Cc1ccccc1)NC(=O)[C@H](CC(N)=O)NC(=O)[C@@H]1CCCN1C(=O)[C@H](CO)NC(=O)[C@H](CO)NC(=O)[C@H](Cc1c[nH]cn1)NC(=O)[C@H](CCCNC(=N)N)NC(=O)[C@H](CC(C)C)NC(=O)[C@H](Cc1ccccc1)NC(=O)[C@H](CC(N)=O)NC(=O)[C@H](C)NC(=O)[C@H](CC(C)C)NC(=O)[C@H](CCCNC(=N)N)NC(=O)[C@H](CCC(N)=O)NC(=O)[C@@H](NC(=O)[C@H](C)NC(=O)[C@@H]1CSSC[C@H](NC(=O)[C@@H](N)CCCCNC(=O)COCCOCCNC(=O)CC[C@H](NC(=O)CCCCCCCCCCCCCCCCCCC(=O)O)C(=O)O)C(=O)N[C@@H](CC(N)=O)C(=O)N[C@@H]([C@@H](C)O)C(=O)N[C@@H](C)C(=O)N[C@@H]([C@@H](C)O)C(=O)N1)[C@@H](C)O)C(=O)N1CCC[C@H]1C(=O)N[C@@H](CO)C(=O)N[C@@H](CO)C(=O)N[C@H](C(=O)N[C@@H](CC(N)=O)C(=O)N[C@H](C(=O)NCC(=O)N[C@@H](CCCNC(=N)N)C(=O)N[C@@H](CC(N)=O)C(=O)N[C@H](C(=O)N[C@@H](Cc1ccc(O)cc1)C(N)=O)[C@@H](C)O)C(C)C)[C@@H](C)O, synthetic analogue of human amylin; also called compound 78) | 69.9 | 60.7 | 90.6 | 1.3
3 | K([AEEA-γGlu-C20 diacid])CNTATCATQRLARFLRHSSPNFGAIPSSTNVGSNTY-NH2 (disulfide 2-7; N-terminus assumed; SMILES CC[C@H](C)[C@H](NC(=O)[C@H](C)NC(=O)CNC(=O)[C@H](Cc1ccccc1)NC(=O)[C@H](CC(N)=O)NC(=O)[C@@H]1CCCN1C(=O)[C@H](CO)NC(=O)[C@H](CO)NC(=O)[C@H](Cc1c[nH]cn1)NC(=O)[C@H](CCCNC(=N)N)NC(=O)[C@H](CC(C)C)NC(=O)[C@H](Cc1ccccc1)NC(=O)[C@H](CCCNC(=N)N)NC(=O)[C@H](C)NC(=O)[C@H](CC(C)C)NC(=O)[C@H](CCCNC(=N)N)NC(=O)[C@H](CCC(N)=O)NC(=O)[C@@H](NC(=O)[C@H](C)NC(=O)[C@@H]1CSSC[C@H](NC(=O)[C@@H](N)CCCCNC(=O)COCCOCCNC(=O)CC[C@H](NC(=O)CCCCCCCCCCCCCCCCCCC(=O)O)C(=O)O)C(=O)N[C@@H](CC(N)=O)C(=O)N[C@@H]([C@@H](C)O)C(=O)N[C@@H](C)C(=O)N[C@@H]([C@@H](C)O)C(=O)N1)[C@@H](C)O)C(=O)N1CCC[C@H]1C(=O)N[C@@H](CO)C(=O)N[C@@H](CO)C(=O)N[C@H](C(=O)N[C@@H](CC(N)=O)C(=O)N[C@H](C(=O)NCC(=O)N[C@@H](CO)C(=O)N[C@@H](CC(N)=O)C(=O)N[C@H](C(=O)N[C@@H](Cc1ccc(O)cc1)C(N)=O)[C@@H](C)O)C(C)C)[C@@H](C)O, synthetic analogue of human amylin; also called compound 82) | 87 | 140 | 143 | 1.64
4 | K([AEEA-γGlu-C20 diacid])CNTATCATQRLARFLRHSSPNFGAIPSSTPVGSNTY-NH2 (disulfide 2-7; N-terminus assumed; SMILES CC[C@H](C)[C@H](NC(=O)[C@H](C)NC(=O)CNC(=O)[C@H](Cc1ccccc1)NC(=O)[C@H](CC(N)=O)NC(=O)[C@@H]1CCCN1C(=O)[C@H](CO)NC(=O)[C@H](CO)NC(=O)[C@H](Cc1c[nH]cn1)NC(=O)[C@H](CCCNC(=N)N)NC(=O)[C@H](CC(C)C)NC(=O)[C@H](Cc1ccccc1)NC(=O)[C@H](CCCNC(=N)N)NC(=O)[C@H](C)NC(=O)[C@H](CC(C)C)NC(=O)[C@H](CCCNC(=N)N)NC(=O)[C@H](CCC(N)=O)NC(=O)[C@@H](NC(=O)[C@H](C)NC(=O)[C@@H]1CSSC[C@H](NC(=O)[C@@H](N)CCCCNC(=O)COCCOCCNC(=O)CC[C@H](NC(=O)CCCCCCCCCCCCCCCCCCC(=O)O)C(=O)O)C(=O)N[C@@H](CC(N)=O)C(=O)N[C@@H]([C@@H](C)O)C(=O)N[C@@H](C)C(=O)N[C@@H]([C@@H](C)O)C(=O)N1)[C@@H](C)O)C(=O)N1CCC[C@H]1C(=O)N[C@@H](CO)C(=O)N[C@@H](CO)C(=O)N[C@H](C(=O)N1CCC[C@H]1C(=O)N[C@H](C(=O)NCC(=O)N[C@@H](CO)C(=O)N[C@@H](CC(N)=O)C(=O)N[C@H](C(=O)N[C@@H](Cc1ccc(O)cc1)C(N)=O)[C@@H](C)O)C(C)C)[C@@H](C)O, synthetic analogue of human amylin; also called compound 64) | 64.7 | 126 | 128 | 1.97
